Columns and labels:
Test in all cases: pull-down
GST-AP-1 core, wild type [1] = target: T1, GST-AP-1 core, wild type (murine | human, UniProt P22892 1-595; Q10567 1-584; Q96PC3 1-154; P35585 1-423)
GST-AP-1 core, wild type [2] = target: T1, GST-AP-1 core, wild type; remark: listed apart in the source
GST-AP-1 core, wild type [3] = target: T1, GST-AP-1 core, wild type; remark: listed apart in the source

T1 sequence (P22892 1-595, chain 1 of 4): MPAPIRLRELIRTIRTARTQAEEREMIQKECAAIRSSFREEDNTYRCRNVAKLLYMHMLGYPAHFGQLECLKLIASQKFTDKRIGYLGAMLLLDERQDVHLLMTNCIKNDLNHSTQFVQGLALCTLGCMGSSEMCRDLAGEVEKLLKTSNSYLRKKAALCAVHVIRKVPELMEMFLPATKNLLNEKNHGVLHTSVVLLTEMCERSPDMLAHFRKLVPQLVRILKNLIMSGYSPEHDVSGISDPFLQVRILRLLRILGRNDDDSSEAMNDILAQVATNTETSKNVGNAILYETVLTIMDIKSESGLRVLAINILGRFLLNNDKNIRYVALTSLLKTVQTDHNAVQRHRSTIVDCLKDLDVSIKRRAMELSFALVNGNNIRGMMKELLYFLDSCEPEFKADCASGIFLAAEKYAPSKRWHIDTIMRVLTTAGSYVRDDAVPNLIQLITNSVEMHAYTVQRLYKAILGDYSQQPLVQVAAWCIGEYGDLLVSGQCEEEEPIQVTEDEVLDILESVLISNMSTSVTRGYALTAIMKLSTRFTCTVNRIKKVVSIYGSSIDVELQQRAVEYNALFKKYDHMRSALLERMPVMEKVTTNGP
T1 sequence (Q10567 1-584, chain 2 of 4): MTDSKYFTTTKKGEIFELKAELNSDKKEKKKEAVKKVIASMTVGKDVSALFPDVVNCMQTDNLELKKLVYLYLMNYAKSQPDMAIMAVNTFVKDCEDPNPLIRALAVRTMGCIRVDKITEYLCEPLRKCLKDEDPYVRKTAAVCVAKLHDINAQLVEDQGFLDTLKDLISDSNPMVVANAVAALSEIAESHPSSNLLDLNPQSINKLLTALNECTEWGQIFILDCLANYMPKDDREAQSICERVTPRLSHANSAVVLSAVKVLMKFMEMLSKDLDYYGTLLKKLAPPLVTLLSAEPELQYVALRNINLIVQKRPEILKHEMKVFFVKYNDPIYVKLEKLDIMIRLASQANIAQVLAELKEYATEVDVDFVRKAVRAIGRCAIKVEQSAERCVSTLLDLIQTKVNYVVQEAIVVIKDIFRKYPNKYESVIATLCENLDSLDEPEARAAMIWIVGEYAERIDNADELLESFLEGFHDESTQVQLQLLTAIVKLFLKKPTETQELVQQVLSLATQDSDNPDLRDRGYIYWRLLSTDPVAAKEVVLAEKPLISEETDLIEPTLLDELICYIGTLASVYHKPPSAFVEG
T1 sequence (Q96PC3 whole entry, chain 3 of 4): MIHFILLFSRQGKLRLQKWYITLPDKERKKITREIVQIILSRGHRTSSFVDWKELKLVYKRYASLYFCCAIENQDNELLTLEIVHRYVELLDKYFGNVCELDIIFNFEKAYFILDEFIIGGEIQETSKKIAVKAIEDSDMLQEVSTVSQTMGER
T1 sequence (P35585 whole entry, chain 4 of 4): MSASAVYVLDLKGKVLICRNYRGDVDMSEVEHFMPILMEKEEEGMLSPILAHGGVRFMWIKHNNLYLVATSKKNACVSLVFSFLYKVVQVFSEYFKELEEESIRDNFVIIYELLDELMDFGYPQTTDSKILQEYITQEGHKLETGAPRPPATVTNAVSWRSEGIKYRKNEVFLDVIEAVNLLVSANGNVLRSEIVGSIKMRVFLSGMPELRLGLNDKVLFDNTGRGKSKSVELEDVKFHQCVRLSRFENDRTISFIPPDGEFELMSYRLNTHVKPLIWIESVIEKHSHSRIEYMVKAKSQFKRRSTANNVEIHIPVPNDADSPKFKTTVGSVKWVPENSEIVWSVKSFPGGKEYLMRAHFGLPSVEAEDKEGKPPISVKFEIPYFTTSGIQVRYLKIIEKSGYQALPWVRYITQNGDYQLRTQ

Binder | fold increase of Arf1 bound with 20 μM VAMP4 peptide, against no peptide (GST-AP-1 core, wild type [1]) | Kd (GST-AP-1 core, wild type [2]) | binding result (GST-AP-1 core, wild type [3])
His6-Arf1^Δ1-16 Q71L, GTP-loaded (domain or fragment) not shown | 4 fold | 20 ± 0.6 µM | –
His-Arf1^Δ16-Q71L W172D (domain or fragment) not shown | – | – | binds
His-Arf1^Δ16-Q71L A136P/A137H (domain or fragment) not shown | – | – | binds
